12 variants from the FLAb antibody collection (doi:10.7554/elife.23156) can be followed below.

B1: scFv; the commonest letter at each place (parent)
chain 1: EVKLDETGGGLVQPGRPMKLSCVASGFTFSDYWMNWVRQSPEKGLEWVAQIRNKPYNYETYYSDSVKGRFTISRDDSKSSVYLQMNNLRVEDMGIYYCTGSYYGMDYWGQGTSVTVS
chain 2: DVVMTQTPLSLPVSLGDQASISCRSSQSLVHSNGNTYLRWYLQKPGQSPKVLIYKVSNRFSGVPDRFSGSGSGTDFTLKISRVEAEDLGVYFCSQSTHVPWTFGGGTKLEIK

The variants in data set [1] derive from B1. As to the kind of experiment: Kd (Tite-Seq). As to conditions: with fluorescein; format: scFv 4-4-20, heavy + light.
In data set [2] the parent is B1. Briefly: yeast surface expression (ratio to wild type); higher = more expressed. As to conditions: format: scFv 4-4-20, heavy + light.

By Kd is commonly meant the constant that tells how readily two partners part at equilibrium. Turning to chain 1 EVKLDETGGGLVQPGRPMKLSCVASGFTFSDYWMNWVRQSPEKGLEWVAQIRNKPYNYETYYSDSVKGRFTISRDDSKSSVYLQMNNLRVEDMGIYYCTGVVYGMDYWGQGTSVTVS chain 2 DVVMTQTPLSLPVSLGDQASISCRSSQSLVHSNGNTYLRWYLQKPGQSPKVLIYKVSNRFSGVPDRFSGSGSGTDFTLKISRVEAEDLGVYFCSQSTHVPWTFGGGTKLEIK [chain 1 S101V Y102V], in data set [1], the Kd was not below 10 µM. For the same variant, the yeast surface expression in data set [2] is 0.432.
Consider chain 1 EVKLDETGGGLVQPGRPMKLSCVASGFTFSDYWMNWVRQSPEKGLEWVAQIRNKPYNYETYYSDSVKGRFTISRDDSKSSVYLQMNNLRVEDMGIYYCTGSLYWMDYWGQGTSVTVS chain 2 DVVMTQTPLSLPVSLGDQASISCRSSQSLVHSNGNTYLRWYLQKPGQSPKVLIYKVSNRFSGVPDRFSGSGSGTDFTLKISRVEAEDLGVYFCSQSTHVPWTFGGGTKLEIK [chain 1 Y102L G104W], for which the equilibrium dissociation constant (Kd) in data set [1] was not below 10 µM. Moreover, in data set [2], the yeast surface expression amounted to 0.263.
The corresponding values for chain 1 EVKLDETGGGLVQPGRPMKLSCVASGFTFSDDWYNWVRQSPEKGLEWVAQIRNKPYNYETYYSDSVKGRFTISRDDSKSSVYLQMNNLRVEDMGIYYCTGSYYGMDYWGQGTSVTVS chain 2 DVVMTQTPLSLPVSLGDQASISCRSSQSLVHSNGNTYLRWYLQKPGQSPKVLIYKVSNRFSGVPDRFSGSGSGTDFTLKISRVEAEDLGVYFCSQSTHVPWTFGGGTKLEIK [chain 1 Y32D M34Y] are not below 10 µM and 0.756.
For chain 1 EVKLDETGGGLVQPGRPMKLSCVASGFTFSDYWTNLVRQSPEKGLEWVAQIRNKPYNYETYYSDSVKGRFTISRDDSKSSVYLQMNNLRVEDMGIYYCTGSYYGMDYWGQGTSVTVS chain 2 DVVMTQTPLSLPVSLGDQASISCRSSQSLVHSNGNTYLRWYLQKPGQSPKVLIYKVSNRFSGVPDRFSGSGSGTDFTLKISRVEAEDLGVYFCSQSTHVPWTFGGGTKLEIK [chain 1 M34T W36L] the same measures were not below 10 µM and 0.455.
The corresponding values for chain 1 EVKLDETGGGLVQPGRPMKLSCVASGFTFADYWCNWVRQSPEKGLEWVAQIRNKPYNYETYYSDSVKGRFTISRDDSKSSVYLQMNNLRVEDMGIYYCTGSYYGMDYWGQGTSVTVS chain 2 DVVMTQTPLSLPVSLGDQASISCRSSQSLVHSNGNTYLRWYLQKPGQSPKVLIYKVSNRFSGVPDRFSGSGSGTDFTLKISRVEAEDLGVYFCSQSTHVPWTFGGGTKLEIK [chain 1 S30A M34C] are 0.00104 µM and 0.868.
As to chain 1 EVKLDETGGGLVQPGRPMKLSCVASGFTFSDYWMNWVRQSPEKGLEWVAQIRNKPYNYETYYSDSVKGRFTISRDDSKSSVYLQMNNLRVEDMGIYYCTGFYYGMDYKGQGTSVTVS chain 2 DVVMTQTPLSLPVSLGDQASISCRSSQSLVHSNGNTYLRWYLQKPGQSPKVLIYKVSNRFSGVPDRFSGSGSGTDFTLKISRVEAEDLGVYFCSQSTHVPWTFGGGTKLEIK [chain 1 S101F W108K], in data set [1], the Kd was not below 10 µM. In addition, the yeast surface expression in data set [2] was 0.217.
The corresponding values for chain 1 EVKLDETGGGLVQPGRPMKLSCVASGFTFSDYWMNWVRQSPEKGLEWVAQIRNKPYNYETYYSDSVKGRFTISRDDSKSSVYLQMNNLRVEDMGIYYCTGSYEGMDYTGQGTSVTVS chain 2 DVVMTQTPLSLPVSLGDQASISCRSSQSLVHSNGNTYLRWYLQKPGQSPKVLIYKVSNRFSGVPDRFSGSGSGTDFTLKISRVEAEDLGVYFCSQSTHVPWTFGGGTKLEIK [chain 1 Y103E W108T] are 0.0171 µM and 1.01.
Consider chain 1 EVKLDETGGGLVQPGRPMKLSCVASGFTSSDYWMHWVRQSPEKGLEWVAQIRNKPYNYETYYSDSVKGRFTISRDDSKSSVYLQMNNLRVEDMGIYYCTGSYYGMDYWGQGTSVTVS chain 2 DVVMTQTPLSLPVSLGDQASISCRSSQSLVHSNGNTYLRWYLQKPGQSPKVLIYKVSNRFSGVPDRFSGSGSGTDFTLKISRVEAEDLGVYFCSQSTHVPWTFGGGTKLEIK [chain 1 F29S N35H], for which the dissociation constant (Kd) in data set [1] was not below 10 µM. In data set [2], the yeast surface expression amounted to 0.836.
The corresponding values for chain 1 EVKLDETGGGLVQPGRPMKLSCVASGFTFSDYWMNWVRQSPEKGLEWVAQIRNKPYNYETYYSDSVKGRFTISRDDSKSSVYLQMNNLRVEDMGIYYCTASYLGMDYGGQGTSVTVS chain 2 DVVMTQTPLSLPVSLGDQASISCRSSQSLVHSNGNTYLRWYLQKPGQSPKVLIYKVSNRFSGVPDRFSGSGSGTDFTLKISRVEAEDLGVYFCSQSTHVPWTFGGGTKLEIK [chain 1 G100A Y103L W108G] are 5.96 µM and 0.436.
The corresponding values for chain 1 EVKLDETGGGLVQPGRPMKLSCVASGFTMSDYWMNVVRQSPEKGLEWVAQIRNKPYNYETYYSDSVKGRFTISRDDSKSSVYLQMNNLRVEDMGIYYCTGSYYGMDYWGQGTSVTVS chain 2 DVVMTQTPLSLPVSLGDQASISCRSSQSLVHSNGNTYLRWYLQKPGQSPKVLIYKVSNRFSGVPDRFSGSGSGTDFTLKISRVEAEDLGVYFCSQSTHVPWTFGGGTKLEIK [chain 1 F29M W36V] are not below 10 µM and 0.782.
The corresponding values for chain 1 EVKLDETGGGLVQPGRPMKLSCVASGFTASDYWMNAVRQSPEKGLEWVAQIRNKPYNYETYYSDSVKGRFTISRDDSKSSVYLQMNNLRVEDMGIYYCTGSYYGMDYWGQGTSVTVS chain 2 DVVMTQTPLSLPVSLGDQASISCRSSQSLVHSNGNTYLRWYLQKPGQSPKVLIYKVSNRFSGVPDRFSGSGSGTDFTLKISRVEAEDLGVYFCSQSTHVPWTFGGGTKLEIK [chain 1 F29A W36A] are not below 10 µM and 0.822.
Turning to chain 1 EVKLDETGGGLVQPGRPMKLSCVASGFTFDDYWMNWFRQSPEKGLEWVAQIRNKPYNYETYYSDSVKGRFTISRDDSKSSVYLQMNNLRVEDMGIYYCTGSYYGMDYWGQGTSVTVS chain 2 DVVMTQTPLSLPVSLGDQASISCRSSQSLVHSNGNTYLRWYLQKPGQSPKVLIYKVSNRFSGVPDRFSGSGSGTDFTLKISRVEAEDLGVYFCSQSTHVPWTFGGGTKLEIK [chain 1 S30D V37F], in data set [1], the Kd was 4.37 µM. Moreover, in data set [2], the yeast surface expression amounted to 0.942.
